This is an account of results in patent publication US20220153832A1 (PIONYR IMMUNOTHERAPEUTICS, published 2022).

Changes are numbered by the printed parent chain. Where two headings read alike, the source gives them in different places.

Assay [1] addresses T1, Human Macrophage Receptor with Collagenous Structure (MARCO), full length, on cells (human, UniProt Q9UEW3 1-520).
T1 construct: the cell type is named under assay; also called huMARCO; HuMARCO
T1 sequence: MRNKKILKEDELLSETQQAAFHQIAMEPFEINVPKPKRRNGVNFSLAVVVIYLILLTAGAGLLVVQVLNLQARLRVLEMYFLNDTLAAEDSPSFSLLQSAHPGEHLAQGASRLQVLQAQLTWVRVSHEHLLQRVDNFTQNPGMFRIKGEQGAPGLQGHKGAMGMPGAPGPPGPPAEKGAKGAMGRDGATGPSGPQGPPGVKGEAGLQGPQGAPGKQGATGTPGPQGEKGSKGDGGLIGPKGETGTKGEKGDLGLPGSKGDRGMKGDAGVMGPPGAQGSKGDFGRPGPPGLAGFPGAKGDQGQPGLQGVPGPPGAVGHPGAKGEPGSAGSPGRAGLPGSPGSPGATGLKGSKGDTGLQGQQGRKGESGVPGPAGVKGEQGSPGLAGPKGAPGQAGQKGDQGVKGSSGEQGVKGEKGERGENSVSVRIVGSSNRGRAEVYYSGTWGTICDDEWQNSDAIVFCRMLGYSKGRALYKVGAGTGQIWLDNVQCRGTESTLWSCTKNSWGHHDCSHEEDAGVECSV
Description: flow cytometry, 293T (HuMARCO). The procedure: (§1) Supernatants were removed and cell pellets were resuspended in Ca²⁺+ and Mg²⁺+ Dulbecco's phosphate-buffered saline (D-PBS) at 1×10⁶ cells/ml. 100,000 cells/well were plated onto U-bottom 96-well plates for staining and all centrifugation steps were performed at 1500 rpm at 4° C. for 5 min and samples were kept protected from light throughout the protocol. Cells were pelleted and resuspended in 100 μl of Zombie NIR viability dye (BioLegend) prepared by diluting Zombie NIR dimethyl sulfoxide (DMSO) stock 1000-fold in D-PBS. Cells were stained by incubation for 10 min at room temperature (RT) in the dark, followed by quenching the staining reaction with the addition of 100 μl of Staining Medium (D-PBS containing 2% FBS and 2 mM ethylenediaminetetraacetic acid (EDTA). Cells were pelleted and resuspended in 100 μl of the different antibodies and hybridomas supernatants needed for screening and corresponding isotype controls in freshly prepared staining medium, such as PI-M014 and mIgG2b isotype. All mAbs were tested at the final top concentration of 100 nM (15 μg/ml) followed by an 8-point three-fold serial dilution, including 0 mg/ml control. Staining was carried out for 1 hour (hr) on ice, followed by 2 washes in Staining Medium. Cells were then pelleted and resuspended in 100 μl of allophycocyanin (APC)-conjugated goat anti-mouse IgG (Fc-specific) secondary antibody, prepared by 500-fold dilution of the antibody stocks in Staining Medium, and incubated for 30 min on ice. Plates were then washed two times with Staining Medium, followed by resuspension in 150 μl of the same buffer for acquisition on the flow cytometer (Attune NxT, Life Technologies). Flow cytometry data were analyzed using FlowJo software (version 10.6.1) and data were processed and further analyzed in Microsoft Excel and GraphPad Prism software (version 8). Half-maximal effective concentrations (EC₅₀) were calculated based on geometric mean fluorescence intensities (gMFI). In case when the plates were not able to be analyzed on the cytometer, cells were pelleted after the washes and fixed in 100 μl of 2% paraformaldehyde (PFA), prepared by diluting the 16% (w/v) stock (Thermo Fisher) in DPBS, for 15 min at RT. Cells were then pelleted and the fixative was removed, followed by resuspension in 150 μl of Staining Medium and stored at 4° C. until acquisition on the flow cytometer.
Background: Flow cytometry measures light scatter and fluorescence of single cells or particles in a stream.

Assay [2] has as its target T2, Cynomolgus MARCO, full length, on cells (cynomolgus, UniProt A0A2K5X0Z2 1-519).
T2 construct: whole, on cells; also called cyno MARCO; CyMARCO
T2 sequence: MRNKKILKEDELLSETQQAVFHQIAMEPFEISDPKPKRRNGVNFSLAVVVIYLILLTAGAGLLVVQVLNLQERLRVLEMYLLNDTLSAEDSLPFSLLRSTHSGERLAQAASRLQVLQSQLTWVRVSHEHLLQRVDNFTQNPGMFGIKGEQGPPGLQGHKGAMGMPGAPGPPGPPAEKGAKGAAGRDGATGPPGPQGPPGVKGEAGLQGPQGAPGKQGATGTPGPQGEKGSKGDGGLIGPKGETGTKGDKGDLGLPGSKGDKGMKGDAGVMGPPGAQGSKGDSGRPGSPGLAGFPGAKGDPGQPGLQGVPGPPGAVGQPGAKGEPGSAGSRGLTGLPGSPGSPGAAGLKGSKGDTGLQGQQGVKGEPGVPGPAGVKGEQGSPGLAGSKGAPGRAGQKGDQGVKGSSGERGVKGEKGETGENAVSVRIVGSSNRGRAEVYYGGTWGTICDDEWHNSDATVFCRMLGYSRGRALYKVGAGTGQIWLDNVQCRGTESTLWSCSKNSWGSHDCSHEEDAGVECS
Briefly: flow cytometry, 293T (CyMARCO). The procedure:
as §1, with “Plates were then washed two times with Staining Medium, followed by resuspension in 150 μl of the same buffer for acquisition on the flow cytometer (Attune NxT, Life Technologies).” left out, “Cells were then pelleted and the fixative was removed, followed by resuspension in 150 μl of Staining Medium and stored at 4° C. until acquisition on the flow cytometer.” left out

The target of assay [3] is T1, Human Macrophage Receptor with …. Description: flow cytometry, 293T (HuMARCO). The procedure:
Supernatants were removed and cell pellets were resuspended in Ca²⁺+ and Mg²⁺+ Dulbecco's phosphate-buffered saline (D-PBS) at 1×10⁶ cells/ml. 100,000 cells/well were plated onto U-bottom 96-well plates for staining and all centrifugation steps were performed at 1500 rpm at 4° C. for 5 min and samples were kept protected from light throughout the protocol. Cells were pelleted and resuspended in 100 μl of Zombie NIR viability dye (BioLegend) prepared by diluting Zombie NIR dimethyl sulfoxide (DMSO) stock 1000-fold in D-PBS. […] Flow cytometry data were analyzed using FlowJo software (version 10.6.1) and data were processed and further analyzed in Microsoft Excel and GraphPad Prism software (version 8). Half-maximal effective concentrations (EC₅₀) were calculated based on geometric mean fluorescence intensities (gMFI). In case when the plates were not able to be analyzed on the cytometer, cells were pelleted after the washes and fixed in 100 μl of 2% paraformaldehyde (PFA), prepared by diluting the 16% (w/v) stock (Thermo Fisher) in DPBS, for 15 min at RT. […]
The source holds these as a separate data set.

The target of assay [4] is T3, N-terminally polyhistidine tagged human MARCO ECD (147-520), recombinant (human, UniProt Q9UEW3 147-520).
T3 construct: also called PI-RG-3000; recombinant human MARCO; not shown: N-terminal polyhistidine tag
T3 sequence: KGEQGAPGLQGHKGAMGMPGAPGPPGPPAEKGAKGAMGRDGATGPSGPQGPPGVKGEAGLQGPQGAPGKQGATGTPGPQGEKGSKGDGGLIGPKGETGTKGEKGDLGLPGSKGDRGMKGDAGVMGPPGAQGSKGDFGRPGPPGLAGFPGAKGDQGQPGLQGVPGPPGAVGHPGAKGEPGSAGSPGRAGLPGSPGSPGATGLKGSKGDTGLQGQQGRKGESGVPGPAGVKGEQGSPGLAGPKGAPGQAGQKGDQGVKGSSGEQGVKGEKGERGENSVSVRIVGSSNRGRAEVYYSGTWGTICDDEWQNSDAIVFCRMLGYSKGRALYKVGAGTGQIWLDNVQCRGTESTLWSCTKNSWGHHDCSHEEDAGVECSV
Description: ELISA on recombinant human MARCO, 0 mM EDTA. The procedure:
After the plates were incubated at room temperature for 1 hour or 4° C. overnight, the plates were wash 3 times with ELISA wash buffer (PBS/0.05% TWEEN-20), then hybridoma supernatant (1:5 dilution) or purified antibody (1 ug) was diluted in DPBS/Ca2+/2% FBS, DPBS without Ca2+/2 mM EDTA/2% FBS, DPBS without Ca2+/10 mM EDTA/2% FBS, and DPBS without Ca2+/50 mM EDTA/2% FBS. Plates again were incubated at room temperature for 1 hour.

B1: PI-HX-3031 (antibody)
heavy: QVQLKESGPGLVQPSQTLSLTCTVSGFSLTSYHVSWVRQPPGKGLEWMGAIWTGGSIAYNSLLKSRLSISRDTSKSQVFLKMNSLQTEDTATYYCARDLSDYYSSYTSFDYWGQGVMVTVSTAETTAPSVYPLAPGTALKSNSMVTLGCLVKGYFPEPVTVTWNSGALSSGVHTFPAVLQSGLYTLTSSVTVPSSTWSSQAVTCNVAHPASSTKVDKKIVPRECNPCGCTGSEVSSVFIFPPKTKDVLTITLTPKVTCVVVDISQNDPEVRFSWFIDDVEVHTAQTHAPEKQSNSTLRSVSELPIVHRDWLNGKTFKCKVNSGAFPAPIEKSISKPEGTPRGPQVYTMAPPKEEMTQSQVSITCMVKGFYPPDIYTEWKMNGQPQENYKNTPPTMDTDGSYFLYSKLNVKKETWQQGNTFTCSVLHEGLHNHHTEKSLSHSP
light: DIQMTQSPASLSTSLGETVSIECLASEGISNDLAWYQQKSGKSPQLLIYAASRLQDGVPSRFSGSGSGTRYSLKISGMQPEDEADYFCQQSYKYPLTFGSGTKLEIKRADAAPTVSIFPPSTEQLATGGASVVCLMNNFYPRDISVKWKIDGTERRDGVLDSVTDQDSKDSTYSMSSTLSLTKADYESHNLYTCEVVHKTSSSPVVKSFNRNEC
notes: Parental rat hybridoma, rat IgG2a
For B1, the EC50 in assay [1] is 141 pM; in assay [2], 46 pM; in assay [3] it was 560 pM. Also, the “ELISA signal (A450)” value in assay [4] was found to be 1.37.

B2: PI-HX-3043 (antibody, rat IgG2a)
heavy: QVNLLQSRAALVKPGASVKLSCKASGYTFTDYYLHWVKQSHAKSLEWIGYINPNNAYTSYNEKFKSKATLTVDKSTNTAYMELSRLTSADSATYYCARDTTDYYNLHFAYWGQGTLVTVSSAETTAPSVYPLAPGTALKSNSMVTLGCLVKGYFPEPVTVTWNSGALSSGVHTFPAVLQSGLYTLTSSVTVPSSTWSSQAVTCNVAHPASSTKVDKKIVPRECNPCGCTGSEVSSVFIFPPKTKDVLTITLTPKVTCVVVDISQNDPEVRFSWFIDDVEVHTAQTHAPEKQSNSTLRSVSELPIVHRDWLNGKTFKCKVNSGAFPAPIEKSISKPEGTPRGPQVYTMAPPKEEMTQSQVSITCMVKGFYPPDIYTEWKMNGQPQENYKNTPPTMDTDGSYFLYSKLNVKKETWQQGNTFTCSVLHEGLHNHHTEKSLSHSP
light: B1 light with T13A, A25T, A50D, Q55E, P80T
notes: as for B1
For the molecule B2, the EC50 in assay [1] was found to be 438 pM; in assay [2] it was 67 pM. Further, in assay [4], the “ELISA signal (A450)” value is 1.2.

B3: PI-HX-3061 (antibody, rat IgG2a)
heavy: EVQLVESGGGLVQPGSSLKLSCVASKFTFSNYGMNWIRQAPKKGLEWIALIYYNSNNKYYADSVKGRFTISRDNSKNTLYLEMNSLRSEDTAMYYCAKSLTGGSDYFDSWGQGVMVTVSSAETTAPSVYPLAPGTALKSNSMVTLGCLVKGYFPEPVTVTWNSGALSSGVHTFPAVLQSGLYTLTSSVTVPSSTWPSQTVTCNVAHPASSTKVDKKIVPRNCGGDCKPCICTGSEVSSVFIFPPKPKDVLTITLTPKVTCVVVDISQDDPEVHFSWFVDDVEVHTAQTRPPEEQFNSTFRSVSELPILHQDWLNGRTFRCKVTSAAFPSPIEKTISKPEGRTQVPHVYTMSPTKEEMTQNEVSITCMVKGFYPPDIYVEWQMNGQPQENYKNTPPTMDTDGSYFLYSKLNVKKEKWQQGNTFTCSVLHEGLHNHHTEKSLSHSP
light: DVQMTQSPSYLAASPGESVSISCKASKSIGTFLAWYQEKPEKTNKLLIYSGSTLQSGTPSRFSGSGSGTDFTLTIRNLEPEDFAVYYCQQHDEYPFTFGSGTKLEIKRADAAPTVSIFPPSTEQLATGGASVVCLMNNFYPRDISVKWKIDGTERRDGVLDSVTDQDSKDSTYSMSSTLSLTKADYESHNLYTCEVVHKTSSSPVVKSFNRNEC
notes: Parental rat hybridoma, rat IgG2a; cross reactive with human and mouse MARCO
On to B3, for which the EC50 in assay [1] and in assay [3] was 490 pM throughout.

As a reminder, the EC50 is the concentration needed to bring the measured effect to its halfway point.
